Experimental findings from US6544753 (MERCK, dated 2003) are described below.

Sequences and labels used below:
T1: human GALR2 (human, UniProt O43603 1-387)
T1 sequence: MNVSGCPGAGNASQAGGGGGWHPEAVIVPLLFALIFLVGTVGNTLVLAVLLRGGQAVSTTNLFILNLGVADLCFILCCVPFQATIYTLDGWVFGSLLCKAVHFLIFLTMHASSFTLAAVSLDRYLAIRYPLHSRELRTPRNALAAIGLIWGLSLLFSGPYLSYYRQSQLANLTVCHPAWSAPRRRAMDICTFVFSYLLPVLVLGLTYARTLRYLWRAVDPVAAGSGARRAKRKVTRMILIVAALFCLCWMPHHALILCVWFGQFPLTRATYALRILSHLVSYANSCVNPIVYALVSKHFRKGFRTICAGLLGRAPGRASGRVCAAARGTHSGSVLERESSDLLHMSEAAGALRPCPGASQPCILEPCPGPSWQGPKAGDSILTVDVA

In the experiment the target is T1, human GALR2. Kind of experiment: cell-based or functional assay.
In turn, M40 (peptide) displayed an aequorin bioluminescence in 293-AEQ17 cells, EC50 of 8.8 nM. The value for M35 (peptide) was 44 nM.

For WTLNSAGYLLGPHAIDNHRSFSDKHGLT (peptide, UniProt P10683 34-61, looked up) [rat Gal(2-29)], the “aequorin bioluminescence in 293-AEQ17 cells, EC50” value was determined as 31 nM. For TLNSAGYLLGPHAIDNHRSFSDKHGLT (peptide, UniProt P10683 35-61, looked up) [rat Gal (3-29)], the “aequorin bioluminescence in 293-AEQ17 cells, EC50” value is above 10000 nM.
